For the test, the target named is T1, MUC16 expressed on the surface of the ovarian tumor cell line OVCAR-3 (human (endogenous in OVCAR-3), UniProt Q8WXI7 1-14507).
T1 construct: also called cell surface MUC16; MUC16 on OVCAR-3 cells; source: endogenous, on OVCAR-3 cells and the control subline #12
As to the kind of experiment: flow cytometry on cells; OVCAR-3 cells with increasing amounts of meso-Fc for 1 h; mean fluorescence, non-linear regression (GraphPad Prism); apparent Kd. The settings on record: one partner purified. (In flow cytometry, cells or beads pass a laser one at a time.)

From publication PMC1635730, “Mesothelin-MUC16 binding is a high affinity, N-glycan dependent interaction that facilitates peritoneal metastasis of ovarian tumors” (Molecular Cancer, 2006) come the findings set out here.

“And” between values parts separate entries of the source, which are not always exact repeats. Identical values can stand only once.

B1: recombinant mesothelin tagged with the Fc fragment of rabbit IgG (Fc fusion, human, UniProt Q13421 296-598, looked up)
chain: EVEKTACPSGKKAREIDESLIFYKKWELEACVDAALLATQMDRVNAIPFTYEQLDVLKHKLDELYPQGYPESVIQHLGYLFLKMSPEDIRKWNVTSLETLKALLEVNKGHEMSPQVATLIDRFVKGRGQLDKDTLDTLTAFYPGYLCSLSPEELSSVPPSSIWAVRPQDLDTCDPRQLDVLYPKARLAFQNMNGSEYFVKIQSFLGGAPTEDLKALSQQNVSMDLATFMKLRTDAVLPLTVAEVQKLLGPHVEGLKAEERHRPVRDWILRQRQDDLDTLGLGLQGGIPNGYLVLDLSMQEALS
notes: mesothelin, human, extracellular domain (the 40 kDa fragment of the 70 kDa precursor); GenBank AY743922; Modified pSecTag2 vector containing rabbit IgG Fc; Glycosylated (made in mammalian cells); also called meso-Fc; mesothelin-Fc; source: HEK 293T, transfected, harvested from the culture supernatant, purified (Hi-trap protein A column)
As to B1, the Kd was 5 nM and 5 to 10 nM.
